Laboratory results from US20220265709A1.

Legend:
[1] = biological target: His-tagged human BCMA (ACRO Biosystems, Cat. #: BCA-H522y) (human); assay: SPR (BIAcore T200) affinity ranking; crude sdAb captured via tag, antigen at 100 nM
[2] = biological target: Fc-fused Cynomolgus BCMA (ACRO Biosystems, Cat. #: BCA-C5253) (cynomolgus); assay: as above

Sequence of His-tagged human BCMA (ACRO Biosystems, Cat. #: BCA-H522y) (human) (Q02223 1-54): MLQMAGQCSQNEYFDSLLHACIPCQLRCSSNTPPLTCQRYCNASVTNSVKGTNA

| Kd [1] [nM] | koff [1] [s⁻¹] | kon [1] [M⁻¹ s⁻¹] | Kd [2] [nM] | koff [2] [s⁻¹] | kon [2] [M⁻¹ s⁻¹] | Binder |
| --- | --- | --- | --- | --- | --- | --- |
| 48 | 0.37 | 7.8e+06 | 13 | 560 | – | anti-BCMA sdAb BCMA8 (VHH, part only, affinity tag) VHH: QVQLVESGGGSVQAGGSLRLSCAASGGTRSWNYMAWFRQAPGKEREDVAIIDNVGSTRYADSVKGRFTISQDTAQNTLYLQMNSLKPEDTAMYYCAARVSWCEDPPCGFDYWGQGTQVTVSS |
| 53 | 0.009 | 170000 | 16 | 0.007 | 450000 | anti-BCMA sdAb BCMA11 (VHH, part only, affinity tag) VHH: QVQLVESGGGVVQPGGSLRLSCAASGFAFSNYAMTWGRQAPGQRLEWVSTIDSGGGSTTYSDSVKGRFTISRDNAKNTLYLQLNNLKSEDTAVYYCSENVDCNGDYCYRANYWGQGTQVTVSS |
| 47 | 0.13 | 2.8e+06 | 50 | 0.04 | 790000 | anti-BCMA sdAb BCMA10 (VHH, part only, affinity tag) VHH: QVQLAESGGGLVQPGGSLRLSCAGSGFTFSSYDMNWVRQAPGKGLERVSTTFNGDDGTNYADSVLGRFTASRDKAKNTLYLQMNSLKTEDTAVYYCAAAVPGVDWYDTTRYKYWGQGTQVTVSS |
| 8.5 | 0.42 | 5e+07 | 2.4 | 0.0015 | 650000 | anti-BCMA sdAb BCMA9 (VHH, part only, affinity tag) VHH: QVQLVESGGGSVQAGGSLRLSCKSSGAPYSSNCMAWFRQTPGKGREGVATIDLASHDTYYADSVKGRFTISRDNAKNTMYLQMNSLKPEDTAMYYCAATSWWPCTTFNGGYANWGQGTQVTVSS |
| 23 | 0.025 | 1.1e+06 | 4.3 | 0.004 | 940000 | anti-BCMA sdAb BCMA12 (VHH, part only, affinity tag) VHH: QVHLVESGGGSVQAGGSLRLSCKSSGATYSSNCMAWFRQTPGKEREGVATIDLASHGTYYADSVKGRFTISRDNAKNTMYLQMSGLRPEDTALYYCAATSWWPCTTFNGGYASWGQGTQVTVSS |
| 4.9 | 0.026 | 5.4e+06 | 0.83 | 0.00091 | 1.1e+06 | anti-BCMA sdAb BCMA6 (VHH, part only, affinity tag) VHH: QMQLVESGGGSVQAGGSLRLSCTASGYTFDDSAMGWYRQAPGNECELVSSISSDGSTYYSDSVKGRFTISQDNAKNTMYLQMNSLKPEDTAVYSCAASSGEDGGSWSTPCHFFGYWGQGTQVTVSS |
| 10 | 0.29 | 2.9e+07 | 0.64 | 0.00043 | 670000 | anti-BCMA sdAb BCMA1 (VHH, part only, affinity tag) VHH: QVQLVESGGGSVQAGGSLRLSCKASGAIYDTNCMAWFRQTPGKEREGVATIDLGNPITYYADSVKGRFTISRDNAKNTMYLQMNSLEPEDTAMYYCAATSWWPCTTFNAGYANWGQGTQVTVSS |
| 77 | 0.053 | 690000 | 13 | 0.018 | 1.4e+06 | anti-BCMA sdAb BCMA13 (VHH, part only, affinity tag) VHH: QVHLVESGGGSVQAGGSLRLSCKASGAIYDTNCMAWFRQTPGKEREGVATIDLGNPITYYADSVKGRFTISRDNAKNTMYLQMNSLKPEDTAMYYCAATSWWPCPANNVGYANWGQGTQVTVSS |
| 46 | 0.1 | 2.3e+06 | 43 | 0.056 | 1.3e+06 | anti-BCMA sdAb BCMA7 (VHH, part only, affinity tag) VHH: QVHLMESGGGSVQSGGSLRLSCAASGYTYSSYCMAWFRQAPGKEREGVAAIASDGSTYYTDSVKGRFTISQDNAKNTLYLQMNSLKPEDTAMYYCGADPVGCSWPDYWGQGTQVTVSS |
